Consider 3 molecules from patent EP4772534A1 (Astellas Pharma, Inc., dated 2026).

Residue numbers refer to the chain shown, from its start. Names may count otherwise.

To fix the notation:
B1: LYS_E294Del_h1x (antibody, human IgG1, kappa)
heavy: QVQLVQSGAEVKKPGASVKVSCKASGYAFSSSWVNWVRQAPGQGLEWMGRIYPGDGDTDYNGKFKGRVTLTADKSTSTAYMELSSLRSEDTAVYYCARRRGYEAVFDYWGQGTLVTVSSASTKGPSVFPLAPSSKSTSGGTAALGCLVKDYFPEPVTVSWNSGALTSGVHTFPAVLQSSGLYSLSSVVTVPSSSLGTQTYICNVNHKPSNTKVDKKVEPKSCDKTHTCPPCPAPELLGGPSVFLFPPKPKDTLMISRTPEVTCVVVDVSHEDPEVKFNWYVDGVEVHNAKTKPREQYNSTYRVVSVLTVLHQDWLNGKEYKCKVSNKALPAPIEKTISKAKGQPREPQVYTLPPSRDELTKNQVSLTCLVKGFYPSDIAVEWESNGQPENNYKTTPPVLDSDGSFFLYSKLTVDKSRWQQGNVFSCSVMHEALHNHYTQKSLSLSPGK
light: DIQLTQSPSSLSASVGDRVTITCRASESVDNYDISFLNWFQQKPGKAPKLLIYAASNQGSGVPSRFSGSGSGTDFTLTISSLQPEDFATYYCQQSKEVPYTFGGGTKVEIKRTVAAPSVFIFPPSDEQLKSGTASVVCLLNNFYPREAKVQWKVDNALQSGNSQESVTEQDSKDSTYSLSSTLTLSKADYEKHKVYACEVTHQGLSSPVTKSFNRGEC
notes: Expressed in ExpiCHO-S cells without ST6GAL1 co-expression; also called anti-lysozyme antibody having the E294Del amino acid mutation in the human Igγ1 constant region
B2: LYS_1c3-m1_h10 (antibody, human IgG1, kappa)
heavy: not shown
light: B1 light
notes: human Igγ1 constant region, unmodified Fc; Expressed in ExpiCHO-S cells without ST6GAL1 co-expression; also called anti-lysozyme antibody having the human Igγ1 constant region (Fc non-variant)
B3: LYS_E294Del_LALA_h1x (antibody, human IgG1, kappa, L234A L235A)
heavy: B1 heavy with L236A, L237A
light: B1 light
notes: Expressed in ExpiCHO-S cells without ST6GAL1 co-expression; also called anti-lysozyme antibody having the L234A/L235A/E294Del amino acid mutations in the human Igγ1 constant region

The target in this assay is T1, human FcγRI (human, UniProt P12314 16-288, limits assumed).
T1 construct: Construct used in the Biacore assay (source, tag, limits) is not described; also called human FcyRI
T1 sequence (P12314 16-288 limits assumed): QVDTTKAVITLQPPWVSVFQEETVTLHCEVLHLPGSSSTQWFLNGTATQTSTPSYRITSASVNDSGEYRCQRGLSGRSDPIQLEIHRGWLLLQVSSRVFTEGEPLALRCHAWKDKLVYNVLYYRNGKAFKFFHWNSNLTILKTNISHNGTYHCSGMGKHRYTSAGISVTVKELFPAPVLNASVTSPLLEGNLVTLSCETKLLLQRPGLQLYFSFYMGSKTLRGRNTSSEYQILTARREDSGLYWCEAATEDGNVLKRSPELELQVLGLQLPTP
The experiment in a line: Biacore T200 (SPR). (In general: In SPR one partner is held on a chip, and binding of the other changes the refractive index at the surface.)
Regarding B1, the binding result is recorded as “binds”.

Take B2: the binding result is “binds”.

On to B3, for which the binding result is “no binding”.
